Measurements taken from IntAct's records for PubMed 23142979.

Molecular target: DAXX, Q9UER7-1
Sequence (Q9UER7 whole entry): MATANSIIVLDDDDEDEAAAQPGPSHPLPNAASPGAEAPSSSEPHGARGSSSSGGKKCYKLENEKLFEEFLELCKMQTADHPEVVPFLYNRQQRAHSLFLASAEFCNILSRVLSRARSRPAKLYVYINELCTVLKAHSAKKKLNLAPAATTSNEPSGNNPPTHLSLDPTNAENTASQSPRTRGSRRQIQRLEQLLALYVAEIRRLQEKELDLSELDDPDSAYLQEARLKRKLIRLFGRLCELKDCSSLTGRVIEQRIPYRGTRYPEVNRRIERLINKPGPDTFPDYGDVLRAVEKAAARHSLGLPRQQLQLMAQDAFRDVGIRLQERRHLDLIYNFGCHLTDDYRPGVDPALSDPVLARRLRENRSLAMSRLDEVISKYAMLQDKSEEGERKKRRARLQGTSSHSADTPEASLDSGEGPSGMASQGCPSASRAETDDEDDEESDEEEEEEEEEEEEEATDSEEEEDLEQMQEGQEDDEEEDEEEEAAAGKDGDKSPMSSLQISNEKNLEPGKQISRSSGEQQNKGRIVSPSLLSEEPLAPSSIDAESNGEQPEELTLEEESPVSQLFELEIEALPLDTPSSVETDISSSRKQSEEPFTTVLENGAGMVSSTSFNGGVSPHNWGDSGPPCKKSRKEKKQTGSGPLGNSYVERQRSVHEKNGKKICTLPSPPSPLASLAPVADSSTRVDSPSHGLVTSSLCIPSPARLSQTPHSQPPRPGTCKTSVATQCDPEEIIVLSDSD

With “Histone H3.1 (Homo sapiens) (from UniProt P68431) S88A” the “effect of a mutation on the interaction” value was “increasing interaction strength”.
